Patent publication US20230235013A1 (MABSOLVE, published 2023)
Positions count from the first letter of the chain named. Names and notes keep the numbering of the source. Blank lines part the entries; values can stand above or below the binder they belong to.

Target: T1, Histidine-tagged recombinant human FcγRI (CD64) (human, UniProt P12314 16-288)
T1 construct: bought; also called Sino Biological Cat. No. 12056-H08H
Assay: SPR, culture supernatant, captured His-FcγRI;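 note: biacore T200 SPR at 25 °C, anti-His capture, supernatants of HEK293 cells expressing IgG1 Fc variants injected 1 min, reference-subtracted response read 55 s after injection start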

B1: anti-CD20 human IgG1 L234Q/L235V/G236R (antibody)
heavy: QVQLQQPGAELVKPGASVKMSCKASGYTFTSYNMHWVKQTPGRGLEWIGAIYPGNGDTSYNQKFKGKATLTADKSSSTAYMQLSSLTSEDSAVYYCARSTYYGGDWYFNVWGAGTTVTVSSASTKGPSVFPLAPSSKSTSGGTAALGCLVKDYFPEPVTVSWNSGALTSGVHTFPAVLQSSGLYSLSSVVTVPSSSLGTQTYICNVNHKPSNTKVDKKVEPKSCDKTHTCPPCPAPEQVRGPSVFLFPPKPKDTLMISRTPEVTCVVVDVSHEDPEVKFNWYVDGVEVHNAKTKPREEQYNSTYRVVSVLTVLHQDWLNGKEYKCKVSNKALPAPIEKTISKAKGQPREPQVYTLPPSRDELTKNQVSLTCLVKGFYPSDIAVEWESNGQPENNYKTTPPVLDSDGSFFLYSKLTVDKSRWQQGNVFSCSVMHEALHNHYTQKSLSLSPGK
light: QIVLSQSPAILSASPGEKVTMTCRASSSVSYIHWFQQKPGSSPKPWIYATSNLASGVPVRFSGSGSGTSYSLTISRVEAEDAATYYCQQWTSNPPTFGGGTKLEIKRTVAAPSVFIFPPSDEQLKSGTASVVCLLNNFYPREAKVQWKVDNALQSGNSQESVTEQDSKDSTYSLSSTLTLSKADYEKHKVYACEVTHQGLSSPVTKSFNRGEC
notes: copies: 2 + 2
- Mean binding response: 20.9 RU

B3: anti-CD20 human IgG1 L234R/L235H/G236R (antibody)
heavy: B1 heavy with Q238R, V239H
light: B1 light
notes: also called 2-38; copies: 2 + 2
- Mean binding response: 14.3 RU

B4: anti-CD20 human IgG1 L234D/L235K/G236R (antibody)
heavy: B1 heavy with Q238D, V239K
light: B1 light
notes: also called 1-23; 2-7; copies: 2 + 2
- Mean binding response: 20.9 RU

B5: anti-CD20 human IgG1 L234A/L235A (LALA) (antibody)
heavy: not shown
light: B1 light
notes: also called 10.16; copies: 2 + 2
- Mean binding response: 65 RU

B9: anti-CD20 human IgG1 L234R/L235I/G236R (antibody)
heavy: B1 heavy with Q238R, V239I
light: B1 light
notes: also called 2-39; copies: 2 + 2
- Mean binding response: 10.7 RU

B10: anti-CD20 human IgG1 L234R/G236R (antibody)
heavy: not shown
light: B1 light
notes: also called 2-41; copies: 2 + 2
- Mean binding response: 21.1 RU

B12: anti-CD20 human IgG1 L234K/L235T/G236R (antibody)
heavy: B1 heavy with Q238K, V239T
light: B1 light
notes: also called 1-90; 2-25; copies: 2 + 2
- Mean binding response: 15.8 RU

B13: anti-CD20 human IgG1 L234K/L235V/G236R (antibody)
heavy: B1 heavy with Q238K
light: B1 light
notes: also called 1-91; 2-26; copies: 2 + 2
- Mean binding response: 12.8 RU

B17: anti-CD20 human IgG1 L234R/L235D/G236R (antibody)
heavy: B1 heavy with Q238R, V239D
light: B1 light
notes: copies: 2 + 2
- Mean binding response: 11.1 RU

B19: anti-CD20 human IgG1 L234R/L235Q/G236R (antibody)
heavy: B1 heavy with Q238R, V239Q
light: B1 light
notes: also called 2-42; copies: 2 + 2
- Mean binding response: 10.1 RU

B21: anti-CD20 human IgG1 L234R/L235E/G236R (antibody)
heavy: B1 heavy with Q238R, V239E
light: B1 light
notes: also called 2-37; copies: 2 + 2
- Mean binding response: 16.7 RU

B22: anti-CD20 human IgG1 L234R/L235N/G236R (antibody)
heavy: B1 heavy with Q238R, V239N
light: B1 light
notes: copies: 2 + 2
- Mean binding response: 10.8 RU

B24: anti-CD20 human IgG1 L234R/L235G/G236R (antibody)
heavy: B1 heavy with Q238R, V239G
light: B1 light
notes: copies: 2 + 2
- Mean binding response: 31.9 RU

B29: anti-CD20 human IgG1 L234K/L235S/G236R (antibody)
heavy: B1 heavy with Q238K, V239S
light: B1 light
notes: also called 1-89; 2-24; copies: 2 + 2
- Mean binding response: 16.1 RU

B30: anti-CD20 human IgG1 L234R/L235A/G236R (antibody)
heavy: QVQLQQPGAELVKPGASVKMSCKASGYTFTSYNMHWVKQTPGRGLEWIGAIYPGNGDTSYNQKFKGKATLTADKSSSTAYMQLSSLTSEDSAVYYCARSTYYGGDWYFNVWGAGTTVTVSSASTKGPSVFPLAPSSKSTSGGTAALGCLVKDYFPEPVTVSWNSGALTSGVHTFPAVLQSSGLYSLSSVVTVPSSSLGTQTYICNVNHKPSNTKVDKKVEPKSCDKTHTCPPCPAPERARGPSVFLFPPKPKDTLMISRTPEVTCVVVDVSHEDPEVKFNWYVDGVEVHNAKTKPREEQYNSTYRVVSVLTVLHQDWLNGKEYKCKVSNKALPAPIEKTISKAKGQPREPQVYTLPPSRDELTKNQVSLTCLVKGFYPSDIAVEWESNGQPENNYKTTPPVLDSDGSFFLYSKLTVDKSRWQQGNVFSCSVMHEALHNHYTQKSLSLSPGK
light: B1 light
notes: copies: 2 + 2
- Mean binding response: 28.1 RU

B31: anti-CD20 human IgG1 L234K/L235R/G236R (antibody)
heavy: B1 heavy with Q238K, V239R
light: B1 light
notes: also called 1-88; 2-23; copies: 2 + 2
- Mean binding response: 13.9 RU

Now from value to binder:

- Mean binding response: 23.8 RU
B2: anti-CD20 human IgG1 L234S/L235K/G236R (antibody)
heavy: B1 heavy with Q238S, V239K
light: B1 light
notes: copies: 2 + 2

- Mean binding response: 29.6 RU
B6: anti-CD20 human IgG1 L234S/L235Q/G236R (antibody)
heavy: B1 heavy with Q238S, V239Q
light: B1 light
notes: copies: 2 + 2

- Mean binding response: 31.6 RU
B7: anti-CD20 human IgG1 L234T/L235M/G236R (antibody)
heavy: B1 heavy with Q238T, V239M
light: B1 light
notes: also called 1-160; copies: 2 + 2

- Mean binding response: 13.6 RU
B8: anti-CD20 human IgG1 L234T/L235R/G236R (antibody)
heavy: B1 heavy with Q238T, V239R
light: B1 light
notes: also called 2-61; copies: 2 + 2

- Mean binding response: 25.6 RU
B11: anti-CD20 human IgG1 L234S/L235S/G236R (antibody)
heavy: B1 heavy with Q238S, V239S
light: B1 light
notes: also called 1-149; copies: 2 + 2

- Mean binding response: 22.4 RU
B14: anti-CD20 human IgG1 L234T/L235N/G236R (antibody)
heavy: B1 heavy with Q238T, V239N
light: B1 light
notes: copies: 2 + 2

- Mean binding response: 32 RU
B15: anti-CD20 human IgG1 L234S/L235M/G236R (antibody)
heavy: B1 heavy with Q238S, V239M
light: B1 light
notes: copies: 2 + 2

- Mean binding response: 26.9 RU
B16: anti-CD20 human IgG1 L234T/L235G/G236R (antibody)
heavy: B1 heavy with Q238T, V239G
light: B1 light
notes: copies: 2 + 2

- Mean binding response: 11.1 RU
B18: anti-CD20 human IgG1 L234S/L235R/G236R (antibody)
heavy: B1 heavy with Q238S, V239R
light: B1 light
notes: also called 2-51; copies: 2 + 2

- Mean binding response: 11.6 RU
B20: anti-CD20 human IgG1 L234S/L235E/G236R (antibody)
heavy: B1 heavy with Q238S, V239E
light: B1 light
notes: also called 2-46; copies: 2 + 2

- Mean binding response: 29.6 RU
B23: anti-CD20 human IgG1 L234S/L235A/G236R (antibody)
heavy: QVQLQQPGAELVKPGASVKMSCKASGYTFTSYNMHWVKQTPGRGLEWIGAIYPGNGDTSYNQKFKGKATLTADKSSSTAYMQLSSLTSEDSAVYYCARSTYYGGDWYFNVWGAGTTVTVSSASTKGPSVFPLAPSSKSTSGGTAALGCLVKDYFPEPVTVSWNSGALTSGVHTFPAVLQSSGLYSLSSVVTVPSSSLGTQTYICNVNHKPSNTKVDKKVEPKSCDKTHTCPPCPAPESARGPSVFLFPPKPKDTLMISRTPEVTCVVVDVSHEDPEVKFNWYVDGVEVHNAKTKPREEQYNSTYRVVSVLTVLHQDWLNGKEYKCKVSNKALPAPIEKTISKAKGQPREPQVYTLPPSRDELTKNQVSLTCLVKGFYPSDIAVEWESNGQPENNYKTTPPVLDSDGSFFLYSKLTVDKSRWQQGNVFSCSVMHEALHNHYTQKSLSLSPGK
light: B1 light
notes: also called 1-137; copies: 2 + 2

- Mean binding response: 32.5 RU
B25: anti-CD20 human IgG1 L234R/L235V/G236R (antibody)
heavy: B1 heavy with Q238R
light: B1 light
notes: copies: 2 + 2

- Mean binding response: 11.8 RU
B26: anti-CD20 human IgG1 L234T/L235A/G236R (antibody)
heavy: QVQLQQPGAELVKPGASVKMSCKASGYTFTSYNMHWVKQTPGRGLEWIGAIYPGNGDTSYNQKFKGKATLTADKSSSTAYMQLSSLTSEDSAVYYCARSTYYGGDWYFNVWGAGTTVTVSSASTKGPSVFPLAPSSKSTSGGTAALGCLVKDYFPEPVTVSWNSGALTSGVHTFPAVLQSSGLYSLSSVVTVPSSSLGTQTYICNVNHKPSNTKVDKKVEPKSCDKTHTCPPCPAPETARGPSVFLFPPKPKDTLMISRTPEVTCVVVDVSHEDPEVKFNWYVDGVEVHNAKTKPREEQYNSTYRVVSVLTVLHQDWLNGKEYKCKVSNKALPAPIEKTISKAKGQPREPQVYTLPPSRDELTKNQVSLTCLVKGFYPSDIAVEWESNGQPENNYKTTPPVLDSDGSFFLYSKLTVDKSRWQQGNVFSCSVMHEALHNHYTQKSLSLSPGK
light: B1 light
notes: also called 1-152; 2-54; copies: 2 + 2

- Mean binding response: 22.7 RU
B27: anti-CD20 human IgG1 L234S/L235N/G236R (antibody)
heavy: B1 heavy with Q238S, V239N
light: B1 light
notes: copies: 2 + 2

- Mean binding response: 34 RU
B28: anti-CD20 human IgG1 L234R/L235S/G236R (antibody)
heavy: B1 heavy with Q238R, V239S
light: B1 light
notes: copies: 2 + 2

- Mean binding response: 24 RU
B32: anti-CD20 human IgG1 L234T/L235E/G236R (antibody)
heavy: B1 heavy with Q238T, V239E
light: B1 light
notes: copies: 2 + 2

- Mean binding response: 12 RU
B33: anti-CD20 human IgG1 L234S/L235I/G236R (antibody)
heavy: B1 heavy with Q238S, V239I
light: B1 light
notes: also called 2-49; copies: 2 + 2
